Square brackets hold non-standard residues; d marks the D form. Ends that are not written are not given here. pT = C[C@@H](OP(=O)(O)O)[C@H](N)C(=O)O; pS = N[C@@H](COP(=O)(O)O)C(=O)O
Key:
[1] = target: T1, Rattus norvegicus wild-type β-arrestin2 (Rattus norvegicus, UniProt P29067 1-410); test: ITC; site II (KD2)
[2] = target: T1, Rattus norvegicus wild-type β-arrestin2; test: ITC; site I (KD1)

T1 sequence (P29067 whole entry): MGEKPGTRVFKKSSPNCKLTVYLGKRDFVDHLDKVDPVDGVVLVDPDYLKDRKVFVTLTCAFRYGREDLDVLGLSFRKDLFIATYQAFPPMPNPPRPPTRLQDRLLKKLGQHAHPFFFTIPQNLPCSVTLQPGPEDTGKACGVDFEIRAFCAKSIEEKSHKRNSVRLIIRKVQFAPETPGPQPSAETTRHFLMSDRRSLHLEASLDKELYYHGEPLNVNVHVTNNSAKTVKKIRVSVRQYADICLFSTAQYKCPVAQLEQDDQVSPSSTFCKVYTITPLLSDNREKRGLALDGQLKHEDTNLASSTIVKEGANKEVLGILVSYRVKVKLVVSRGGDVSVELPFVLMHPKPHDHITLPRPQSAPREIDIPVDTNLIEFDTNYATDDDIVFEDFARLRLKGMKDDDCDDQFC

Kd [1]: 3320 nM
Kd [2]: 79.9 nM
Binder: ASRV[pS]E[pT]EY[pS]ALEQ [C7pp2, phosphopeptide from the carboxyl terminus of CXCR7 (residues 346-359)]
